Consider 14 molecules from paper PMC12014896 (2025).

To fix the notation:
B1: COVIC-30 (antibody, V domains shown)
VH: EVQLVESGGGLVQPGGSLRLSCAASGFTVSSNYMSWVRQAPGKGLEWVSVIYSGGSTYYADSVKGRFTISRDNSKNTLYLQMNSLRAEDTAVYYCARVEWAAAGTFYWGQGTLVTVSS
VL: QSALTQEPSLTVSPGGTVTLTCGSSTGAVTSGHYPYWFQQKPGQAPRTLIYDTSNKRSWTPARFSGSLLGGKAALTLSGAQPEDEAEYYCLLSYSGVWVFGGGTKLTVL
B2: COVIC-95 (antibody, V domains shown)
VH: EVQLVESGGGLVQPGGSLRLSCAASGQTFNMGWFRQAPGKEREFVAAIGSGGSTSYADSVKGRFTISADNSKNTAYLQMNSLKPEDTAVYYCWRLGNDYFDYWGQGTLVTVSS
B3: COVIC-57 (antibody)
chain 1: QVQLQESGGGLVQAGGSLRLSCAASGRTFSEYAMGWFRQAPGKEREFVATISWSGGSTYYTDSVKGRFTISRDNAKNTVYLQMNSLKPDDTAVYYCAAAGLGTVVSEWDYDYDYWGQGTQVTVSSGGGGSGGGGSASTKGPSVFPLAPSSKSTSGGTAALGCLVKDYFPEPVTVSWNSGALTSGVHTFPAVLQSSGLYSLSSVVTVPSSSLGTQTYICNVNHKPSNTKVDKKVEPKSCDKTHTKKKPLDGEYFTLQIRGRERFEMFRELNEALELKDAQAGKEPG
chain 2: QVQLQESGGGLVQAGGSLRLSCAASGRTFSEYAMGWFRQAPGKEREFVATISWSGGSTYYTDSVKGRFTISRDNAKNTVYLQMNSLKPDDTAVYYCAAAGLGTVVSEWDYDYDYWGQGTQVTVSSGGGGSGGGGSKRTVAAPSVFIFPPSDEQLKSGTASVVCLLNNFYPREAKVQWKVDNALQSGNSQESVTEQDSKDSTYSLSSTLTLSKADYEKHKVYACEVTHQGLSSPVTKSFNRGEC
B4: COVIC-125 (antibody)
chain 1: QVQLQESGGGLVQAGGSLRLSCAASGRTFSEYAMGWFRQAPGKEREFVATISWSGGSTYYTDSVKGRFTISRDNAKNTVYLQMNSLKPDDTAVYYCAAAGLGTVVSEWDYDYDYWGQGTQVTVSSGGSGGSQVQLQESGGGLVQAGGSLRLSCAASGRTFSEYAMGWFRQAPGKEREFVATISWSGGSTYYTDSVKGRFTISRDNAKNTVYLQMNSLKPDDTAVYYCAAAGLGTVVSEWDYDYDYWGQGTQVTVSSGGGGSGGGGSASTKGPSVFPLAPSSKSTSGGTAALGCLVKDYFPEPVTVSWNSGALTSGVHTFPAVLQSSGLYSLSSVVTVPSSSLGTQTYICNVNHKPSNTKVDKKVEPKSCDKTHTKKKPLDGEYFTLQIRGRERFEMFRELNEALELKDAQAGKEPGGGGGSGGGGSQVQLQESGGGLVQAGGSLRLSCAASGRTFSEYAMGWFRQAPGKEREFVATISWSGGSTYYTDSVKGRFTISRDNAKNTVYLQMNSLKPDDTAVYYCAAAGLGTVVSEWDYDYDYWGQGTQVTVSSGGSGGSQVQLQESGGGLVQAGGSLRLSCAASGRTFSEYAMGWFRQAPGKEREFVATISWSGGSTYYTDSVKGRFTISRDNAKNTVYLQMNSLKPDDTAVYYCAAAGLGTVVSEWDYDYDYWGQGTQVTVSS
chain 2: QVQLQESGGGLVQAGGSLRLSCAASGRTFSEYAMGWFRQAPGKEREFVATISWSGGSTYYTDSVKGRFTISRDNAKNTVYLQMNSLKPDDTAVYYCAAAGLGTVVSEWDYDYDYWGQGTQVTVSSGGGGSGGGGSKRTVAAPSVFIFPPSDEQLKSGTASVVCLLNNFYPREAKVQWKVDNALQSGNSQESVTEQDSKDSTYSLSSTLTLSKADYEKHKVYACEVTHQGLSSPVTKSFNRGEC
B5: COVIC-58 (antibody)
chain 1: QVQLQESGGGLVQAGGSLRLSCAASGRTFSEYAMGWFRQAPGKEREFVATISWSGGSTYYTDSVKGRFTISRDNAKNTVYLQMNSLKPDDTAVYYCAAAGLGTVVSEWDYDYDYWGQGTQVTVSSGGGGSGGGGSASTKGPSVFPLAPSSKSTSGGTAALGCLVKDYFPEPVTVSWNSGALTSGVHTFPAVLQSSGLYSLSSVVTVPSSSLGTQTYICNVNHKPSNTKVDKKVEPKSCDKTHTAPELLGGPSVFLFPPKPKDTLMISRTPEVTCVVVDVSHEDPEVKFNWYVDGVEVHNAKTKPREEQYNSTYRVVSVLTVLHQDWLNGKEYKCKVSNKALPAPIEKTISKAKGQPREPQVYTLPPSRDELTKNQVSLTCLVKGFYPSDIAVEWESNGQPENNYKTTPPVLDSDGSFFLYSKLTVDKSRWQQGNVFSCSVMHEALHNHYTQKSLSLSPGKKKKPLDGEYFTLQIRGRERFEMFRELNEALELKDAQAGKEPG
chain 2: QVQLQESGGGLVQAGGSLRLSCAASGRTFSEYAMGWFRQAPGKEREFVATISWSGGSTYYTDSVKGRFTISRDNAKNTVYLQMNSLKPDDTAVYYCAAAGLGTVVSEWDYDYDYWGQGTQVTVSSGGGGSGGGGSKRTVAAPSVFIFPPSDEQLKSGTASVVCLLNNFYPREAKVQWKVDNALQSGNSQESVTEQDSKDSTYSLSSTLTLSKADYEKHKVYACEVTHQGLSSPVTKSFNRGEC
B6: COVIC-127 (antibody)
chain 1: not shown
chain 2: QVQLQESGGGLVQAGGSLRLSCAASGRTFSEYAMGWFRQAPGKEREFVATISWSGGSTYYTDSVKGRFTISRDNAKNTVYLQMNSLKPDDTAVYYCAAAGLGTVVSEWDYDYDYWGQGTQVTVSSGGSGGSQVQLQESGGGLVQAGGSLRLSCAASGRTFSEYAMGWFRQAPGKEREFVATISWSGGSTYYTDSVKGRFTISRDNAKNTVYLQMNSLKPDDTAVYYCAAAGLGTVVSEWDYDYDYWGQGTQVTVSSGGGGSGGGGSKRTVAAPSVFIFPPSDEQLKSGTASVVCLLNNFYPREAKVQWKVDNALQSGNSQESVTEQDSKDSTYSLSSTLTLSKADYEKHKVYACEVTHQGLSSPVTKSFNRGEC
B7: COVIC-126 (antibody)
chain 1: QVQLQESGGGLVQAGGSLRLSCAASGRTFSEYAMGWFRQAPGKEREFVATISWSGGSTYYTDSVKGRFTISRDNAKNTVYLQMNSLKPDDTAVYYCAAAGLGTVVSEWDYDYDYWGQGTQVTVSSGGSGGSQVQLQESGGGLVQAGGSLRLSCAASGRTFSEYAMGWFRQAPGKEREFVATISWSGGSTYYTDSVKGRFTISRDNAKNTVYLQMNSLKPDDTAVYYCAAAGLGTVVSEWDYDYDYWGQGTQVTVSSGGGGSGGGGSASTKGPSVFPLAPSSKSTSGGTAALGCLVKDYFPEPVTVSWNSGALTSGVHTFPAVLQSSGLYSLSSVVTVPSSSLGTQTYICNVNHKPSNTKVDKKVEPKSCDKTHTKKKPLDGEYFTLQIRGRERFEMFRELNEALELKDAQAGKEPGGGGGSGGGGSQVQLQESGGGLVQAGGSLRLSCAASGRTFSEYAMGWFRQAPGKEREFVATISWSGGSTYYTDSVKGRFTISRDNAKNTVYLQMNSLKPDDTAVYYCAAAGLGTVVSEWDYDYDYWGQGTQVTVSSGGSGGSQVQLQESGGGLVQAGGSLRLSCAASGRTFSEYAMGWFRQAPGKEREFVATISWSGGSTYYTDSVKGRFTISRDNAKNTVYLQMNSLKPDDTAVYYCAAAGLGTVVSEWDYDYDYWGQGTQVTVSS
chain 2: QVQLQESGGGLVQAGGSLRLSCAASGRTFSEYAMGWFRQAPGKEREFVATISWSGGSTYYTDSVKGRFTISRDNAKNTVYLQMNSLKPDDTAVYYCAAAGLGTVVSEWDYDYDYWGQGTQVTVSSGGSGGSQVQLQESGGGLVQAGGSLRLSCAASGRTFSEYAMGWFRQAPGKEREFVATISWSGGSTYYTDSVKGRFTISRDNAKNTVYLQMNSLKPDDTAVYYCAAAGLGTVVSEWDYDYDYWGQGTQVTVSSGGGGSGGGGSKRTVAAPSVFIFPPSDEQLKSGTASVVCLLNNFYPREAKVQWKVDNALQSGNSQESVTEQDSKDSTYSLSSTLTLSKADYEKHKVYACEVTHQGLSSPVTKSFNRGEC
B8: COVIC-368 (antibody, V domains shown)
VH: QVQLVQSGAEVKKPGASVKVSCKAYGYTFTSHYMHWVRQAPGQGLEWMGIIDSSGGGASYPQKFQGRVTLTRDTSSSTVYMELSSLRSEDTAVYYCAKAHSTNWYGWFDPWGQGTLVTVSS
VL: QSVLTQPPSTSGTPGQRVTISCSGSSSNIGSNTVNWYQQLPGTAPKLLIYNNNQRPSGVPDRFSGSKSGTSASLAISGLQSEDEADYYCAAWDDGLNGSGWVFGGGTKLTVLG
B9: COVIC-321 (antibody)
chain 1: not shown
chain 2: EVQLLESGGGLVQPGGSLRLSCAASGRTFSEYAMGWFRQAPGKGLEFVSTISWSGGSTYYADSVKGRFTISRDNSKNTLYLQMNSLRAEDTAVYYCAAAGLGTVVSEWDYDYDYWGQGTLVTVSSGGGGSGGGGSKRTVAAPSVFIFPPSDEQLKSGTASVVCLLNNFYPREAKVQWKVDNALQSGNSQESVTEQDSKDSTYSLSSTLTLSKADYEKHKVYACEVTHQGLSSPVTKSFNRGEC
B10: COVIC-291 (antibody, V domains shown)
VH: EVQLVESGGGLVQPGRSLRLSCAASGFTFDDYAMHWVRQAPGKGLEWVSGISWNSDSIDYADSVKGRFTISRDNAKNSLYLQMNSLRAEDTALYYCAKDRGYEILTPASFDYWGQGTLVTVSS
VL: DIQMTQSPSSLSASVGDRVTITCRASQSISSYLNWFQHKPGKAPKLLIYGASSLQSGVPSRFSGSGSGTDFTLTISSLQPEDFATYYCQQSYSTPPYTFGQGTKLEIK
B11: COVIC-266 (antibody, V domains shown)
VH: EVQLVESGGGLVQPGGSLRLSCKASGISVAPHAVTWVRQAPGKGLEWIGVIASNADTYYASWAKGRFTISRDNSKNTLYLQMNSLRAEDTAVYYCARHPGSAGYGYTYYYAMDPWGQGTLVTVSS
VL: DIQMTQSPSSLSASVGDRVTITCKASEDIRYGLNWYQQKPGKAPKLLIYGANTLEAGVPSRFSGSGSGTDFTLTISSLQPEDFATYYCQQGYSTPLTFGGGTKVEIK
B12: COVIC-386 (antibody, V domains shown)
VH: EVQLVESGGGLVQPGGSLRLSCKASGYSFRHQAMTWVRQAPGKGLEWIGVIASNADTYYASWAKGRFTISRDNSKNTLYLQMNSLRAEDTAVYYCARHPGSAGYGYTYYYAMDPWGQGTLVTVSS
VL: DIQMTQSPSSLSASVGDRVTITCQASERVFYGIDWYQQKPGKAPKLLIYGASALWHGVPSRFSGSGSGTDYTLTISSLQPEDFATYYCQQGYMVPIGFGGGTKVEIK
B13: COVIC-54 (antibody, V domains shown)
VH: QVQLQESGGGLVQAGGSLRLSCAASGRTFSEYAMGWFRQAPGKEREFVATISWSGGSTYYTDSVKGRFTISRDNAKNTVYLQMNSLKPDDTAVYYCAAAGLGTVVSEWDYDYDYWGQGTQVTVSS
B14: COVIC-66 (antibody)
chain: QVQLQESGGGLVQAGGSLRLSCAASGRTFSEYAMGWFRQAPGKEREFVATISWSGGSTYYTDSVKGRFTISRDNAKNTVYLQMNSLKPDDTAVYYCAAAGLGTVVSEWDYDYDYWGQGTQVTVSSGGSGGSQVQLQESGGGLVQAGGSLRLSCVASGSIFSINAMDWYRQAPGKQRELVAGITSGGSTNYGDFVKGRFTISRDNAKNTVYLQMDSLKPEDTAVYYCAAEVGGWGPPRPDYWGHGTQVTVSSGGGGSGGGGSEPKSCDKTHTCPPCPAPELLGGKKKPLDGEYFTLQIRGRERFEMFRELNEALELKDAQAGKEPG

This experiment addresses SARS-CoV-2 spike RBD (Wuhan-Hu-1) (Severe acute respiratory syndrome …, UniProt P0DTC2). In words: SPR. In general terms: Surface plasmon resonance follows binding to a sensor surface in real time, without labels.
B1: the Kd was determined as 4.1 nM.

On to B2, for which the Kd was determined as 27.5 nM.

B3 showed a Kd of 204 nM.

B4 returned a Kd of 184 nM.

Regarding B5, binding was characterised by a dissociation constant (Kd) of 139 nM.

The molecule B6 had a Kd of 106 nM.

For B7, the Kd worked out at 139 nM.

In turn, B8 had a Kd of 0.436 nM.

In turn, B9 returned a Kd of 30 nM.

In turn, B10 yielded a Kd of 6.83 nM.

B11 returned an equilibrium dissociation constant (Kd) of 2.41 nM.

Molecule B12 had a Kd of 0.177 nM.

The molecule B13 gave a Kd of 244 nM.

Molecule B14 had a Kd of 140 nM.

What is called Kd is the constant that tells how readily two partners part at equilibrium. Low readings indicate higher affinity, high ones lower affinity.
